Source: patent US20240317847A1 (Bayer, published 2024)

Key:
[1] = molecular target: T1, human IL2Ra (Peprotech, Germany, #200-02RC) (human, UniProt P01589 22-240); test: direct binding ELISA on coated IL2Ra
T1 construct: Coated on the ELISA plate; also called hIL2Ra; IL-2 receptor alpha
T1 sequence (looked up): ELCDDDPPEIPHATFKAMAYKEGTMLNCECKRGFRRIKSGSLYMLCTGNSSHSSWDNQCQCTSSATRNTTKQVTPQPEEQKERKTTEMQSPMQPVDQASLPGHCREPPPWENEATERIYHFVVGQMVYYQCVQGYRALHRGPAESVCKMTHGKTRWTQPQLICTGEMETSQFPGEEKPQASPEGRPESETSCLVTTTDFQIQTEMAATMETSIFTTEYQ

murine IL-11 [2] = molecular target: T2, murine IL-11 (mouse, UniProt P47873 22-199); test: Di-complex ELISA, competitor canine IL11RA-Fc on coated IL-11;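 further: signal drop relative to signal at lowest antibody concentration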
T2 construct: Invigate, e.g. lot #C210819-09; biotinylated where coated in the ELISA; also called mIL-11; mIL11
T2 sequence: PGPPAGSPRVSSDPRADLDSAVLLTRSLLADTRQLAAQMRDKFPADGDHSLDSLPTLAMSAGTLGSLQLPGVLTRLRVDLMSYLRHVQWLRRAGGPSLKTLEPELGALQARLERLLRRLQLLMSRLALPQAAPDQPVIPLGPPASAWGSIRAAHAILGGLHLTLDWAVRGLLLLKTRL
Description: The assay is performed using streptavidin coated microtiter plates (Greiner bio-one, #781997). In a first step, 10 nM biotinylated mouse IL-11 (Invigate, Germany, e.g., lot #C210819-09) or human IL-11 (Invigate, Germany, e.g., lot #C121021-19) is coated in 25 μl PBS on the plate at 4° C. overnight. Next day, the plate is washed three times with 50 μl PBST and then blocked with 50 μl SmartBlock (Candor, #113125) for one hour at room temperature (RT). After additional three washes with PBST, 25 μl of a mixture of the murine anti IL-11 antibody and recombinant canine IL11RA-Fc fusion protein (Sino Biological, #70078-D02H) in PBS-T, 10% Smartblock are added simultaneously to the plate and incubated for one hour at RT. […] After three additional washes with PBS-T, 25 μl anti-human-POD (Sigma, #A0170) in PBS-T, 10% Smartblock is added and incubated for 1 hour at RT. After a final three washes with PBS-T, 25 μl AmplexRed (Fisher Scientific, A12222), 1/1000 in PBS, 0,003% H₂O₂, is added as substrate and incubated for 15 min at RT in the dark. Then, the fluorescence is measured with a plate reader at 535/595 nm. Signals from dose responses were used to calculate IC50 values (GraphPad Prism). Efficacy was calculated as [(signal measured at lowest antibody concentration−signal measured at the highest antibody concentration)×100] divided by (signal measured at lowest antibody concentration−signal measured in the absence of IL11Ra).
IgG converted antibodies were subjected to the experimental assay procedure described in Example 18.

murine IL-11 [3] = molecular target: T2, murine IL-11; test: SPR 37 C, antibody captured, IL-11 as analyte
Description: To assess the binding kinetics and affinity of anti-IL-11 antibodies as well as their species cross-reactivity profile, binding assays were conducted using surface plasmon resonance (SPR). Binding assays were performed on a Biacore T200 instrument or on a Biacore 8K+ instrument (Cytiva) at 37° C. using assay buffer HBS EP+, 300 mM NaCl, 1 mg/ml BSA, 0.05% NaN3. Antibodies were captured either via anti-human Fc IgGs (“Human antibody capture kit”, Order No. BR100839, Cytiva) or via anti-mouse Fc IgGs (“Mouse antibody capture kit, Order No. BR100383, Cytiva) covalently amine coupled to a Series S CM5 sensor chip (Cytiva) depending on the isotype. The amine coupling was carried out according to the manufacturer's instructions using 1-ethyl-3-(3-dimethylaminopropyl) carbodiimide hydrochloride (EDC), N-hydroxysuccinimide (NHS) and ethanolamine HCl, pH 8.5 (“Amine Coupling Kit” BR-1000-50, Cytiva.). Human, mouse, cynomolgus or rat IL-11 was used as analyte at several dilutions within the concentration range from 0.05-200 nM. For binding assays with only one concentration 200 nM IL-11 was used. The sensor surface was regenerated with glycine pH 1.7 after each antigen injection. Obtained sensorgrams were double referenced (subtraction of reference flow cell signal and buffer injection) and were fitted to a 1:1 Langmuir binding model to derive kinetic data using the Biacore T200 Evaluation software or the Biacore Insight software. If no value is reported, there was either no binding or very low binding and multiphasic binding behavior. Values below 1E-12 were considered to be below the dynamic range of the instrument and set to <1E-12.

murine IL-11 [4] = molecular target: T2, murine IL-11; test: cell-based or functional assay
rat IL-11 = molecular target: T3, rat IL-11 (rat, UniProt Q99MF5 22-199); test: cell-based or functional assay
T3 sequence: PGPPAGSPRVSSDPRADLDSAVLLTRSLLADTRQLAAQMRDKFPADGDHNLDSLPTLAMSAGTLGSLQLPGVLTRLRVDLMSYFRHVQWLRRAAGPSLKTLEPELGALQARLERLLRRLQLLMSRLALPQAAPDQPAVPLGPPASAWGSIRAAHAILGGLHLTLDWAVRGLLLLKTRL

murine IL-11 [5] = molecular target: T4, murine IL-11 (mouse, UniProt P47873 22-199); test: cell-based or functional assay; remark: listed apart in the source
T4 sequence: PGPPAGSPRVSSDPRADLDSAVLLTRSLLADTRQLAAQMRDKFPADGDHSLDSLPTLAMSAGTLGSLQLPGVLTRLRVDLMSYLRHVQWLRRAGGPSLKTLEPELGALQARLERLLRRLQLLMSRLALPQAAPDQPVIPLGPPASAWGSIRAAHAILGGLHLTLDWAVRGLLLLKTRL

human IL-11 [6] = molecular target: T5, human IL-11 (human, UniProt P20809 22-199); test: cell-based or functional assay
T5 sequence: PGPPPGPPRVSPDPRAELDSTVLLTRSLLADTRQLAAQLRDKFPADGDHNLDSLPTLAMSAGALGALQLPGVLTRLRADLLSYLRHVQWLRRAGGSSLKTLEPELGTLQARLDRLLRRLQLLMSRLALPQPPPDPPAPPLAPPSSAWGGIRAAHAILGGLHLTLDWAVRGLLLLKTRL

murine IL-11 [7] = molecular target: T4, murine IL-11; test: cell-based or functional assay; remark: listed apart in the source
human IL-11 [8] = molecular target: T5, human IL-11; test: cell-based or functional assay; remark: listed apart in the source

B1: TPP-29523 (antibody, mouse IgG1)
heavy: QVQLVESGGGVVQPGRSLRLSCAASGFTFSHYDMHWVRQAPGKGLEWVAVISYEGSVKFYADSVKGRFTISRDNSKNTLYLQMNSLRAEDTAVYYCARTPGFHFDYWGQGTLVTVSSAKTTPPSVYPLAPGSAAQTNSMVTLGCLVKGYFPEPVTVTWNSGSLSSGVHTFPAVLQSDLYTLSSSVTVPSSTWPSETVTCNVAHPASSTKVDKKIVPRDCGCKPCICTVPEVSSVFIFPPKPKDVLTITLTPKVTCVVVDISKDDPEVQFSWFVDDVEVHTAQTQPREEQFNSTFRSVSELPIMHQDWLNGKEFKCRVNSAAFPAPIEKTISKTKGRPKAPQVYTIPPPKEQMAKDKVSLTCMITDFFPEDITVEWQWNGQPAENYKNTQPIMDTDGSYFVYSKLNVQKSNWEAGNTFTCSVLHEGLHNHHTEKSLSHSPGK
light: QSVLTQPPSASGTPGQRVTISCSGSSSNIGSNYVNWYQQLPGTAPKLLIYYDDLRPSGVPDRFSGSKSGTSASLAISGLRSEDEADYYCSAWDDSLSGVVFGGGTKLTVLGQPKSSPSVTLFPPSSEELETNKATLVCTITDFYPGVVTVDWKVDGTPVTQGMETTQPSKQSNNKYMASSYLTLTARAWERHSSYSCQVTHEGHTVEKSLSRADCS
notes: mIgG1, Lambda
- binding result [1]: no binding (tested: 3.3E-7 [M] antibody)

B2: TPP-29520 (antibody, mouse IgG1)
heavy: QVQLVESGGGVVQPGRSLRLSCAASGFTFSHYDMHWVRQAPGKGLEWVAVISYSGSVKFYADSVKGRFTISRDNSKNTLYLQMNSLRAEDTAVYYCARTPGSHFDYWGQGTLVTVSSAKTTPPSVYPLAPGSAAQTNSMVTLGCLVKGYFPEPVTVTWNSGSLSSGVHTFPAVLQSDLYTLSSSVTVPSSTWPSETVTCNVAHPASSTKVDKKIVPRDCGCKPCICTVPEVSSVFIFPPKPKDVLTITLTPKVTCVVVDISKDDPEVQFSWFVDDVEVHTAQTQPREEQFNSTFRSVSELPIMHQDWLNGKEFKCRVNSAAFPAPIEKTISKTKGRPKAPQVYTIPPPKEQMAKDKVSLTCMITDFFPEDITVEWQWNGQPAENYKNTQPIMDTDGSYFVYSKLNVQKSNWEAGNTFTCSVLHEGLHNHHTEKSLSHSPGK
light: QSVLTQPPSASGTPGQRVTISCSGSSSNIGSNYVNWYQQLPGTAPKLLIYYDDLRPSGVPDRFSGSKSGTSASLAISGLRSEDEADYYCSAWDDSLSGVVFGGGTKLTVLGQPKSSPSVTLFPPSSEELETNKATLVCTITDFYPGVVTVDWKVDGTPVTQGMETTQPSKQSNNKYMASSYLTLTARAWERHSSYSCQVTHEGHTVEKSLSRADCS
notes: mIgG1, Lambda
- binding result [1]: no binding (tested: 3.3E-7 [M] antibody)

B3: TPP-29521 (antibody, mouse IgG1)
heavy: QVQLVESGGGVVQPGRSLRLSCAASGFTFSHYDMHWVRQAPGKGLEWVAVISYEGSNKFYADSVKGRFTISRDNSKNTLYLQMNSLRAEDTAVYYCARTPGFHFDYWGQGTLVTVSSAKTTPPSVYPLAPGSAAQTNSMVTLGCLVKGYFPEPVTVTWNSGSLSSGVHTFPAVLQSDLYTLSSSVTVPSSTWPSETVTCNVAHPASSTKVDKKIVPRDCGCKPCICTVPEVSSVFIFPPKPKDVLTITLTPKVTCVVVDISKDDPEVQFSWFVDDVEVHTAQTQPREEQFNSTFRSVSELPIMHQDWLNGKEFKCRVNSAAFPAPIEKTISKTKGRPKAPQVYTIPPPKEQMAKDKVSLTCMITDFFPEDITVEWQWNGQPAENYKNTQPIMDTDGSYFVYSKLNVQKSNWEAGNTFTCSVLHEGLHNHHTEKSLSHSPGK
light: QSVLTQPPSASGTPGQRVTISCSGSSSNIGSNYVSWYQQLPGTAPKLLIYYDDLRPSGVPDRFSGSKSGTSASLAISGLRSEDEADYYCSAWDDSLSGVVFGGGTKLTVLGQPKSSPSVTLFPPSSEELETNKATLVCTITDFYPGVVTVDWKVDGTPVTQGMETTQPSKQSNNKYMASSYLTLTARAWERHSSYSCQVTHEGHTVEKSLSRADCS
notes: mIgG1, Lambda
- binding result [1]: no binding (tested: 3.3E-7 [M] antibody)

B4: TPP-29519 (antibody, mouse IgG1)
heavy: QVQLVESGGGVVQPGRSLRLSCAASGFTFSHYDMHWVRQAPGKGLEWVAVISYHGSVKFYADSVKGRFTISRDNSKNTLYLQMNSLRAEDTAVYYCARTPGFHFDYWGQGTLVTVSSAKTTPPSVYPLAPGSAAQTNSMVTLGCLVKGYFPEPVTVTWNSGSLSSGVHTFPAVLQSDLYTLSSSVTVPSSTWPSETVTCNVAHPASSTKVDKKIVPRDCGCKPCICTVPEVSSVFIFPPKPKDVLTITLTPKVTCVVVDISKDDPEVQFSWFVDDVEVHTAQTQPREEQFNSTFRSVSELPIMHQDWLNGKEFKCRVNSAAFPAPIEKTISKTKGRPKAPQVYTIPPPKEQMAKDKVSLTCMITDFFPEDITVEWQWNGQPAENYKNTQPIMDTDGSYFVYSKLNVQKSNWEAGNTFTCSVLHEGLHNHHTEKSLSHSPGK
light: QSVLTQPPSASGTPGQRVTISCSGSSSNIGSNYVSWYQQLPGTAPKLLIYYDDLRPSGVPDRFSGSKSGTSASLAISGLRSEDEADYYCSAWDDSLSGVVFGGGTKLTVLGQPKSSPSVTLFPPSSEELETNKATLVCTITDFYPGVVTVDWKVDGTPVTQGMETTQPSKQSNNKYMASSYLTLTARAWERHSSYSCQVTHEGHTVEKSLSRADCS
notes: mIgG1, Lambda
- binding result [1]: no binding (tested: 3.3E-7 [M] antibody)

B5: TPP-18087 (antibody, mouse IgG1, V domains shown)
VH: EVQLLESGGGLVQPGGSLRLSCAASGFTFSHYDMNWLRQAPGKGLEWVGVISYDGSNKFYADFVKGRFTISRDNSKNTLYLQMNSLRAEDTAVYYCARTPGSHFDYWGQGTLVTVSS
VL: QSVLTQPPSASGTPGQRVTISCSGSSSNIGNNAVNWYQQLPGTAPKLLIYYDDLLPSGVPDRFSGSKSGTSASLAISGLRSEDEADYYCSAWDDSLNGVVFGGGTKLTVLG
notes: mIgG1, Lambda
- Efficacy (%) (murine IL-11 [2]): 2.4%
- Kd (murine IL-11 [3]): 41 nM
- RGA Efficacy (%) (murine IL-11 [4]): 59.4%
- RGA IC50 (murine IL-11 [4]): 16 nM
- RGA Efficacy (%) (rat IL-11): 31.8%

B6: TPP-31289 (antibody, IgG4, V domains shown)
VH: EVQLLESGGGLVQPGRSLRLSCAASGFTFSHYDMNWLRQAPGKGLEWVGVISYDGSNKFYADFVKGRFTISRDNSKNTLYLQMNSLRAEDTAVYYCARTPGSHFDYWGQGTLVTVSS
VL: QSVLTQPPSASGTPGQRVTISCSGSSSNIGNNAVNWYQQLPGTAPKLLIYYDDLLPSGVPDRFSGSKSGTSASLAISGLRSEDEADYYCSAWDDSLNGVVFGGGTKLTVL
- IC50, RGA 1 (murine IL-11 [5]): 27 nM
- IC50, RGA 2 (murine IL-11 [5]): 23 nM
- IC50, RGA 1 (human IL-11 [6]): 61 nM
- IC50, RGA 2 (human IL-11 [6]): 76 nM
- RGA potency (mean) (murine IL-11 [7]): < 170 nM
- RGA potency (mean) (human IL-11 [8]): < 170 nM
